Laboratory results reported in patent US20230270892A1, “CHELATOR COMPOSITIONS FOR RADIOMETALS AND METHODS OF USING SAME” (TRIUMF INC., priority 2020, published 2023).

What was measured:
in vivo [1] = test: in vivo; design: species or system mice; details: male, C57BL/6J, mouse, iv, total radioactivity
Experimental: The inventors performed an in vivo evaluation to establish the biodistribution profile of ^225Ac-crown-αMSH in B16F10 tumor bearing mice. The B16F10 cell line (Mus musculus) was obtained commercially from ATCC (CRL-6475), and confirmed pathogen-free using the IMPACT 1 mouse profile (IDEXX BioResearch). The cells were cultured in DMEM media (StemCell Technologies) supplemented with 10% FBS, 100 U/mL penicillin and 100 µg/mL streptomycin at 37° C. in a humidified incubator containing 5% CO2. All animal experiments were conducted according to the guidelines established by Canadian Council on Animal Care and approved by Animal Ethics Committee of the University of British Columbia (UBC). Male C57BL/6J mice were acquired in-house and kept under pathogen-free conditions in the Animal Resource Centre at the BC Cancer Research Centre. The mice were anesthetised by inhalation of 2% isoflurane in 2 L/min oxygen, and 1 x10^6 B16F10 cells were inoculated subcutaneously at right flank. Two to four days after inoculation, the mice were transferred to the UBC Centre of Comparative Medicine, where biodistribution studies were performed once the tumors reached 8-10 mm. At the day of biodistribution mice were injected in the tail vein with ~20 kBq of ^225Accrown-αMSH (range: 10.8-31.6 kBq). After injection mice were allowed to roam freely in their cages, and they were euthanized in groups of 4 at 2 hours post injection by CO2 asphyxiation under isoflurane anesthesia. Blood was collected by cardiac puncture and a full biodistribution performed. Organs were cleaned from blood, weighed and the activity determined using a calibrated gamma counter (Packard Cobra II Auto-gamma counter, Perkin Elmer, Waltham, MA, USA) using three energy windows: 60-120 keV (window A), 180-260 keV (window B), and 400-480 keV (window C). Counting was performed after 6 hours post-sacrifice to ensure equilibrium of the ^225Ac decay chain. Counts were decay corrected from the time of sacrifice and total organ weights were used for the calculation of injected dose per gram of tissue (% ID/g). No differences were noted between the data calculated by three different windows; therefore, the biodistributions are reported using the data acquired using window A. The inventors evaluated biodistribution of ^225Ac-crown-αMSH in mice bearing B16F10 tumors at 2 h post-injection (p.i.) in two separate studies using a total of 5 groups of mice (Table 3). In the first study, three conditions were evaluated: ^225Ac-crown-αMSH prepared the day before (18 h) (A, FIG. 22, right bars), same day (4 h) (B), or same day (4 h) with Sep-Pak purification (C); in the second study the inventors compared 225Ac-crown-αMSH labelled 4 hours before with Sep-Pak purification and with the introduction of 0.1 M L-ascorbate (D, FIG. 22, left bars), or ^225Ac-crown-αMSH prepared 18 hours prior with L-ascorbate (E).

[2] = DTPA challenge (transmetallation) of ^225Ac-crown-αMSH on HPLC; assay type: physicochemical; details: addition of 1000 eq. of DTPA, in 7 hours
in vivo [3] = test: in vivo; design: species or system mice; details: mouse, iv, total radioactivity
Experimental: (§1) At the day of biodistribution mice were injected in the tail vein with ~20 kBq of ^225Accrown-αMSH (range: 10.8-31.6 kBq). […] Blood was collected by cardiac puncture and a full biodistribution performed. Organs were cleaned from blood, weighed and the activity determined using a calibrated gamma counter (Packard Cobra II Auto-gamma counter, Perkin Elmer, Waltham, MA, USA) using three energy windows: 60-120 keV (window A), 180-260 keV (window B), and 400-480 keV (window C). Counting was performed after 6 hours post-sacrifice to ensure equilibrium of the ^225Ac decay chain. Counts were decay corrected from the time of sacrifice and total organ weights were used for the calculation of injected dose per gram of tissue (% ID/g). No differences were noted between the data calculated by three different windows; therefore, the biodistributions are reported using the data acquired using window A. A similar study to Example 5.1 was conducted using ^213Bi instead of ^225Ac.

[4] = tested on: mice bearing B16F10 tumors; test: in vivo; details: mouse
Experimental: as §1

Q: What does the source list for `CCCC[C@H](NC(=O)CN1CCC(NC(=O)CN2CCOCCN(CC(=O)O)CCN(CC(=O)O)CCOCCN(CC(=O)O)CC2)CC1)C(=O)N[C@H]1CC(=O)NCCCC[C@@H](C(N)=O)NC(=O)[C@H](Cc2c[nH]c3ccccc23)NC(=O)[C@H](CCCNC(=N)N)NC(=O)[C@@H](Cc2ccccc2)NC(=O)[C@H](Cc2c[nH]cn2)NC1=O` [^225Ac-crown-αMSH, metal not drawn]?
A: tissue uptake at 2 h (in vivo [1]; 20 kBq, Biodistribution: Bone): 1.82 %ID/g; tissue to tissue ratio at 2 h (in vivo [1]; tumor to blood ratio): 85.4 ± 46.8; tissue to tissue ratio at 2 h (in vivo [1]; tumor to bone ratio): 63.5 ± 13.2; tissue to tissue ratio at 2 h (in vivo [1]; tumor to kidneys ratio): 2.8 ± 0.98; tissue uptake at 2 h (in vivo [1]; tumor uptake): 12.7 ± 2.31 %ID/g; transmetallation on HPLC [2]: 64%

Q: What does the source list for `CCCC[C@H](NC(=O)CN1CCC(NC(=O)CN2CCOCCN(CC(=O)O)CCN(CC(=O)O)CCOCCN(CC(=O)O)CC2)CC1)C(=O)N[C@H]1CC(=O)NCCCC[C@@H](C(N)=O)NC(=O)[C@H](Cc2c[nH]c3ccccc23)NC(=O)[C@H](CCCNC(=N)N)NC(=O)[C@@H](Cc2ccccc2)NC(=O)[C@H](Cc2c[nH]cn2)NC1=O` [^213Bi-crown-αMSH, metal not drawn]?
A: tissue uptake at 1 h (in vivo [3]; Biodistribution: Bladder): 5.48 %ID/g; tissue uptake at 1 h (in vivo [3]; Biodistribution: Blood): 0.5 %ID/g; tissue uptake at 1 h (in vivo [3]; Biodistribution: Bone): 0.41 %ID/g; excreta dose per gram or mL at 1 h (in vivo [3]; Biodistribution: Feces): 0.23 %ID/g; tissue uptake at 1 h (in vivo [3]; Biodistribution: Heart): 0.09 %ID/g; tissue uptake at 1 h (in vivo [3]; Biodistribution: Kidneys): 6.02 %ID/g; tissue uptake at 1 h (in vivo [3]; Biodistribution: Lg Intestine): 0.56 %ID/g; tissue uptake at 1 h (in vivo [3]; Biodistribution: Liver): 1.09 %ID/g; tissue uptake at 1 h (in vivo [3]; Biodistribution: Lungs): 0.45 %ID/g; tissue uptake at 1 h (in vivo [3]; Biodistribution: Muscle): 0.08 %ID/g; tissue uptake at 1 h (in vivo [3]; Biodistribution: Pancreas): 0.15 %ID/g; tissue uptake at 1 h (in vivo [3]; Biodistribution: Sm Intestine): 0.34 %ID/g; tissue uptake at 1 h (in vivo [3]; Biodistribution: Spleen): 0.36 %ID/g; tissue uptake at 1 h (in vivo [3]; Biodistribution: Stomach): 0.67 %ID/g; tissue uptake at 1 h (in vivo [3]; Biodistribution: Tail): 2.56 %ID/g; tissue uptake at 1 h (in vivo [3]; Biodistribution: Thyroids): 0.74 %ID/g; tissue uptake at 1 h (in vivo [3]; Biodistribution: Tumour): 5.9 %ID/g; excreta dose per gram or mL at 1 h (in vivo [3]; Biodistribution: Urine): 93.2 %ID/g; T/Blood (ratio tumor versus blood) [4]: 12.15; T/Bone (ratio tumor versus bone) [4]: 23.41; T/Kidney (ratio tumor versus kidney) [4]: 0.99; T/Liver (ratio tumor versus liver) [4]: 5.44; T/Muscle (ratio tumor versus muscle) [4]: 84.48
